The record followed here is patent US20230270636A1, “GOLD AND PALMITOYL PENTAPEPTIDE-4 NANOPARTICLES” (INFINITEC ACTIVOS, S.L., priority 2018, published 2023).

Where a SMILES comes first, the peptide text is derived from it. Where no end group is shown, it is not given here. The star is where a group is joined. Palmitoyl = CCCCCCCCCCCCCCCC(=O)*

Data set [1] can be described thus: Cutaneous penetration using Franz diffusion cells. The following applies: pig skin, 20 h incubation; for Cutaneous penetration (skin layers reached): 32° C., receptor solution analysed; for Change in cutaneous penetration upon conjugating the peptide with gold nanoparticles: FIG. 1. It is filed as in vitro ADME. On the procedure:
Cutaneous penetration was determined using Franz cells. The pig skin samples used in the experiments were cut into circles 3 cm in diameter. The pig skin was mounted on the receptor compartment of a Franz diffusion cell system with the stratum corneum facing up towards the donor compartment. 18 ml of phosphate-buffered saline (PBS) were used as receptor solution. An aliquot of the test samples (nanoparticles of Example 1 (GNP-P1), nanoparticles of Example 2 (GNP-P2), nanoparticles of Example 3 (GNP), formulation of peptide P1 of Example 4, formulation of peptide P2 of Example 5, mixture of nanoparticles and peptide P1 (GNP+P1) of Example 6 was applied on the pig skin. The Franz diffusion cells were mounted on an H+P Labortechnik Varimag Telesystem (Munich, Germany) and placed in a thermostatic bath (Haake).
Untreated skin control was also included. The Franz diffusion cells were kept at 32° C., and after 20 h of incubation, the receptor solution was analyzed by means of UV-visible absorption spectroscopy using a Shimadzu spectrophotometer UV-1800 (Parc Cientific of Barcelona) and quartz cuvettes (Hellma Analytics) to quantify the amount of gold nanoparticles present (GNP, GNP-P1, and GNP-P2). The amount of free peptide (P1, P2) was determined by means of HPLC, using a Waters 996 photodiode array detector instrument equipped with a Waters 2695 separation module and Millenium software. An Xbridge BEH130 C18 4.6×100 mm 3.5 μm reverse phase HPLC column by Waters was used. In both cases, UV detection was performed at 220 nm. Peptide P1 was analyzed with a mobile phase B gradient of 5 to 100% for 8 minutes at a flow rate of 1.0 ml/min, the retention time being 6.5 minutes. Peptide P2 was analyzed with a mobile phase B gradient of 0 to 20% for 8 minutes at a flow rate of 1.0 ml/min, the retention time being 1.5 minutes. The eluents used in both cases were: Mobile phase A: 0.045% of TFA/H2O, mobile phase B: 0.036% of TFA/ACN.

A short description of data set [2]: Concentration of peptide incorporated in nanoparticles by HPLC. It is filed as physicochemical. To be noted: UV 220 nm. On the procedure: The concentration of the peptide (P1 or P2) incorporated in the nanoparticles (GNP-P1 and/or GNP-P2) was determined by HPLC, using a Waters 996 photodiode array detector instrument equipped with a Waters 2695 separation module and Millenium software. An Xbridge BEH130 C18 4.6×100 mm 3.5 μm reverse phase HPLC column by Waters was used. UV detection was performed at 220 nm, and a mobile phase B gradient of 5 to 100% was performed for 8 minutes at a flow rate of 1.0 ml/min. Under these conditions, the retention time being 6.4 min for both peptides P1 and P2. Mobile phase A: 0.045% of TFA/H2O, mobile phase B: 0.036% of TFA/ACN.

Data set [3] in a line: Zeta potential of nanoparticles (Zetasizer Nano ZS). In kind it is physicochemical. To be noted: 1 mg/mL in water, 25° C. On the procedure:
The preparation of the samples for determining the Z potential consists of weighing 1 mg if it is powder and it is suspended in 1 mL of milli-Q H2O. Whereas in the case of liquid samples, a 100 μL aliquot of the sample to which 900 μL of milli-Q H2O are added is collected with an automatic pipette. Then the Z potential measurement is taken using DTS1070 plastic cuvettes and Zetasizer Nano ZS series equipment (Malvern Instruments) of the Instituto de Quimica Avanzada de Cataluña (Advanced Chemistry Institute of Catalonia), CSIC.
(§1) The Z potential of the nanoparticles synthesized was determined using DTS1070 plastic cuvettes and Zetasizer Nano ZS series equipment (Malvern Instruments, of the Instituto de Quimica Avanzada de Cataluña, CSIC). The preparation of the samples consists of 1 mg if it is powder and it is suspended in 1 mL of milli-Q H2O. In the case of liquid samples, a 100 μL aliquot of the sample to which 900 μL of milli-Q H2O are added is collected with an automatic pipette such that there is always a concentration of 1 mg/mL of sample. Then the Z potential measurement is taken at a temperature of 25° C.

A short description of data set [4]: Nanoparticle size by dynamic light scattering (DLS). In kind it is physicochemical. The following applies: 1 mg/mL in water, 25° C. On the procedure: The size of the nanoparticles can be determined by means of conventional methods in the art, particularly by means of dynamic light scattering (DLS). First the samples are prepared to determine particle size. To that end, 1 mg is weighed if it is powder and it is suspended in 1 mL of milli-Q H2O. In the case of liquid samples, a 100 μL aliquot of the sample to which 900 μL of milli-Q H2O are added is collected with an automatic pipette. Then the particle size measurement is taken using quartz cuvettes and Zetasizer Nano ZS series equipment (Malvern Instruments) of the Instituto de Quimica Avanzada de Cataluña (Advanced Chemistry Institute of Catalonia), CSIC.
as §1, with “The size” for “The Z potential”, “nanoparticles (GNP, GNP-P1, and GNP-P2)” for “nanoparticles synthesized”, “determined by dynamic light scattering (DLS) for which quartz” for “determined using DTS1070 plastic”, “Instruments,” for “Instruments, of the”, “de Cataluña) were used.” for “de Cataluña, CSIC).”, “the particle size” for “the Z potential”

With `CCCCCCCCCCCCCCCC(=O)N[C@@H](CCCCN)C(=O)N[C@H](C(=O)N[C@H](C(=O)N[C@@H](CCCCN)C(=O)N[C@@H](CO)C(=O)O)[C@@H](C)O)[C@@H](C)O` [Example P1, Palm-L-Lys-L-Thr-L-Thr-L-Lys-L-Ser-OH] (Palmitoyl-KTTKS-OH), in data set [1], the “Cutaneous penetration (skin layers reached)” value is “only penetrated the outermost layers external of the skin”.
Turning to “GNP − P1: gold nanoparticles conjugated with the peptide of formula (I) wherein R is a palmitoyl moiety (Palm-SEQ ID NO: 1) (Palmitoyl-KTTKS; also: conjugated to gold nanoparticles)”, the “Maximum concentration of peptide in nanoparticles” value in data set [2] was 0.3 mg/mL. The “Nanoparticle Zeta potential” value in data set [3] is listed as −35 mV. In data set [1], the “Cutaneous penetration (skin layers reached)” value is “penetration reached more internal layers such as the epidermis and dermis”; the “Change in cutaneous penetration upon conjugating the peptide with gold nanoparticles” value is given as “considerable increase in penetration”. The Nanoparticle diameter in data set [4] was 150-200 nm.
Consider “GNP − P2: gold nanoparticles conjugated with the peptide of formula (II) (P2; Palm-SEQ ID NO: 2) (Palmitoyl-CKTTKSCTTKS; cysteine pairing not given here; also: conjugated to gold nanoparticles)”, for which the “Maximum concentration of peptide in nanoparticles” value in data set [2] stood at 0.3 mg/mL. Also, the “Nanoparticle Zeta potential” value in data set [3] is −59 mV. For the same compound, the Nanoparticle diameter in data set [4] is reported as 150-200 nm.
For the compound “Palm-L-Cys-L-Lys-L-Thr-L-Thr-L-Lys-L-Ser-L-Cys-L-Thr-L-Thr-L-Lys-L-Ser-OH [Example P2]”, the “Change in cutaneous penetration upon conjugating the peptide with gold nanoparticles” value in data set [1] was “increase in penetration is not observed”.
